# Assay: soluble on expression in E. coli; label from the status in PepcDB or PDB records
row,Sequence,soluble on expression in E. coli
1,MGSDKIHHHHHHMSFSMLRAALVLGSIGCAFSPQVNAKLNPLTVQIQPLAQSKLLLDLANAGDQLIAVGQRGHVLVYDKSWIQVPTPVLSQLTKVFFLDAKLGWAVGHDASIIHTQDGGQTWQLQMQSREIEKPFLDIRFFNANEGIAIGAYGLFYRTLDGGKTWEPEFHEELLFEEDVSYLAELKAEDEALYLSERAALLPHFNRIIRLNDSRLLLVGELGLVAESKDNGKHFTRTDFDYDGSMFNAIQVGEQIYVMGLRGHVFKTDLSLSDWQQVELPVKSSINGALVHKGELYIVGNAGVVLRLDGKGHAEIVARRQGENIVAVAESADKQLWFAGSNGLFQLK,not soluble
2,MEQIGLIGYGSMADMIARQLLKHEQIKENELFIETRTKGERLRALMSDYPNVSADPLENWANTCQLILICVPPLHVIETMRRLYPYVNRNTHIVSIAAGVPLRLLEAETEAGISRVIPAITSEAEAGISLVVHSEALAAEKKERLNELLSVFSRVREIKESNLDVASNLTSSAPGFIAAIFEELALSAVRNSSLSKEEAFDFLIHSLYGTGKMLIEKNMSFEETLERVATKGGITGEGAEVIHASVPDVFDEVFERTLRKYELLTEQVGKQTLEHHHHHH,soluble
3,MAASFVAVQGNADHGVKLKSGLTSAHRLQRRLSSDLRPLAAADLTGDSLPSEERRRTSSSTPDESLRQVMYLNCWAQG,soluble
4,MYHWFALRSVPLVGNVLYRRLLDRFGSPEAVFRASDAELASVRGVSSAVAASIRGHDPRAFAESECERVRRAGVRIVTIRDPDYPPLLLQIADPPPYLYVKGDPTGLEPAVAVVGSRRATVYGRTVTARLAEDLARRGVAVVSGMARGIDTAAHQGALAGEGRTVGVLGCGIDVVYPPENRALFARVADRGALVSEFPLGMGPLAENFPRRNRIISGMCRGVLVVEAAERSGSLITAQMALDQGRDVFAIPGNITSSGSSGTNRLIREGAKLVAGVEDILEELVPRAAAAVAVAPPLPPLPAGEAALMAMFGADPLHIDEIIAKSALTVGEVSAMLLRLELKGVVTQLPGKFFHAN,not soluble
5,MAISIKGVNTGVIRKSNNFIALALKIKEPRNKESLFFMSVMELRDLLIALESRLHQKHKLDAAAHLQYEQARDKVIKKMAENIPEILVDELKNADINRRVNTLELTDNQGENLTFVLTLHDGSKCELVVNELQIEMLARAIIHAINNAEMRELALRITSLLDFLPLYDVDCQDNGNLEYDTYSQPEWKHNLFDHYLAVLYRFKDESGKEQFSGAVVKTREATPGKEIEAITRRMLDFSPRLKKLAGVPCQVYVRTVAANNAQPLTQDQCLRALHHLRVQSTSKTAPQAK,not soluble
6,MKFAVIVFPGSNCDVDMFHAIKDELGEEVDYVWHDTENLDEYDAILLPGGFSYGDYLRCGAISRFANAMKAVQKAAEQGKPILGVCNGFQILVESGLLPGALIRNENLKFMCRTVQLRVENNETMFTSQYEKDEIINIPIAHGEGNYYCDEATLKQLEENNQIAFRYVENPNGSVSDIAGIVNEKGNVLGMMPHPERAVDELLGGAEGLKVFQSILKQWRETYVVNA,not soluble
7,GAKDSTVQTSISVENVLERAGDSTPFSVALESIDAMKTIEEITIAGSGKASFSPLTFTTVGQYTYRVYQKPSQNKDYQADTTVFDVLVYVTYDEDGTLVAKVISRRAGDEEKSAITFKPKRLVKPIPPRQPDFPKTPLPLA,soluble
8,MAHHHHHHMRSTSALYRYACDEEGCVSHSELVKLFHGIDVALGTDADATAKADDMTPAPPPPALADKMLLAYAPNLCFPTHLTLSQSYLGDAGLAAFMRMLPVLRWVRAIEARGVGAGPRTIEALSGALTAYLVEGCEEAAALPTVATMGDSVSGAEQLAGGRLPALELVDLRDNDGIYALSGQRLLTALRKRRLMLRAWCAAHAGVGDVVPALEVLVDLDALPPSTANALHEWNEGAANLKYQRMLARETHRWQEQVQVFTVRSAVSEAMKCSDSDMPGTAVAGAAAGQPVGEHVIFRLPSSADGDSQMTQMTCEVNACMSDFLTASCCLSSAKEAAPQPAHVVSGSSSLACPLPTLDGVRAALQVCIDFGADTLAILPHTNATLWYVASVWQQQQKEQHATTPSSSADTAEYVQLNYWEAKANVAALLRGLQANPALETELETSSQAGGVVIQRHLYRLRELYVQLDQNDAPHEDAICTARVAGVGATPLSEMVALYYRIVAALVTRRFSETHLPSMRACEQHISDVTEHVLNHLVVGEVSSEALEARIERLRSSTDAGSVPSGRPSGASDFSQSTRALPPVMAQCLYHLRRHQAEAEAWVKTYAGTAVAAPQPSSSSAAAAPIHAFHACHCADGLRRHMDECVAPTSSNEGLSSNLLPLPCTSCCYHALQAAQTLLQSPGEGSSGECELCARWAILEPVRRALPRELRMFFLDMVIRHRSRVRGGCAYVPSLDSVTGVGAPLPLSMVDWLAYTEHQSENWAKVLRVFGEWYRLRALESYGIAEARTLLRQPPT,not soluble
9,MGSDKIHHHHHHMTPTIVFDGGYTLWSAGDDAPLAFMTDGLARRLGTPVFKAFVRHPHASFDRRFGVQTLPNLEHESKAGAAGRWFRGLNFTDPRGELAAVADTVAQADLLIMGAGNFITEVGMDVLRGHLPRFCTMALMAQMAGTPYMLFGLSANVLHNPWAVRAAGWLLRGAAAVTFRERMAVENLRACGVALPEHTLLPDAALGAPRAPQGRGDEILRQEQIPSRTAGLRLALAVRDLSWMGSHAAALYERHQTELINLWCARKDNDVLLVPQCCYHADSGITDDRVLGRTLRGRSRFSDKVHVIEGCYHYDDIESLYTQADCAVATRLHGSVFAARMGIPVVGLAYEDKVRGFFGQLQAEDQCLPWDAPATDILALLDSLMLRVQAVRDHMLHRIEQLQQQLAGYIDIAAALAAPAGDHTP,not soluble
10,NKYNKIANELIKIIGEDNIISITHCATRLRVMVKDREIINDKKVEKVDEVKGVFFTSGQYQIILGTGIVNKVYAEVEKMGLKTLSKKEQDELVKNNE,soluble
11,MSVVLGENELVIRGCILYEVLNKKPIQESYENFCRNVGNDVMSYNDFDFWFYRFYNGNHDLHYDRSADPASPLLSNMPLNIIDEVLNRMEILNLLVLMKVSRNFRKVVQNMKMVFDCIEVDFDEHLAITYNSRHKIKYRPNDTAQYSPFRQEPTCTCGRRIRTSDEDNRKEFFVTDEDYIELGVKDLKLIMENQNVQLKKFQFSNGSNQDTQKKFIDRAEIAFKSAKSSTRTVEAHYNSLAEIAQLLPIFHAGKLEEINFKQGARTDGYEQLVGLEQWKNARKFDGFWSLNVPIEHCLHFECFKDHFVRFKEEDAMKLRYMLDRSTNFGYAEITIDPMNVSLLKRAFDVNNDNKFEFVYQSPDNGSFEVHCALRVLYITKSGYKFKYNNKSASTFYKPPPIPAPPALFLRDYQFFDPRPRMPTDRSRYRPF,not soluble
12,MRDEEPVRRLETIVEEERRVVVQGYVFDAEVSELKSGRTLLTMKITDYTNSILVKMFSRDKEDAELMSGVKKGMWVKVRGSVQNDTFVRDLVIIANDLNEIAANERQDTAPEGEKRVELHLHTPMSQMDAVTSVTKLIEQAKKWGHPAIAVTDHAVVQSFPEAYSAAKKHGMKVIYGLEANIVDDGVPIAYNETHRRLGSGSGPFHVTLLAQNETGLKNLFKLVSLSHIQYFHRVPRIPRSVLVKHRDGLLVGSGCDKGELFDNLIQKAPEEVEDIARFYDFLEVHPPDVYKPLIEMDYVKDEEMIKNIIRSIVALGEKLDIPVVATGNVHYLNPEDKIYRKILIHSQGGANPLNRHELPDVYFRTTNEMLDCFSFLGPEKAKEIVVDNTQKIASLIGDVKPIKDELYTPRIEGADEEIREMSYRRAKEIYGDPLPKLVEERLEKELKSIIGHGFAVIYLISHKLVKKSLDDGYLVGSRGSVGSSFVATMTEITEVNPLPPHYVCPNCKHSEFFNDGSVGSGFDLPDKNCPRCGTKYKKDGHDIPFETFLGFKGDKVPDIDLNFSGEYQPRAHNYTKVLFGEDNVYRAGTIGTVADKTAYGFVKAYASDHNLELRGAEIDRLAAGCTGVKRTTGQHPGGIIVVPDYMEIYDFTPIQYPADDTSSEWRTTHFDFHSIHDNLLKLDILGHDDPTVIRMLQDLSGIDPKTIPTDDPDVMGIFSSTEPLGVTPEQIMCNVGTIGIPEFGTRFVRQMLEETRPKTFSELVQISGLSHGTDVWLGNAQELIQNGTCTLSEVIGCRDDIMVYLIYRGLEPSLAFKIMESVRKGKGLTPEFEAEMRKHDVPEWYIDSCKKIKYMFPKAHAAAYVLMAVRIAYFKVHHPLLYYASYFTVRAEDFDLDAMIKGSAAIRKRIEEINAKGIQATAKEKSLLTVLEVALEMCERGFSFKNIDLYRSQATEFVIDGNSLIPPFNAIPGLGTNVAQAIVRAREEGEFLSKEDLQQRGKLSKTLLEYLESRGCLDSLPDHNQLSLFSGGHHHHHHHH,soluble
13,MSVLAVQAQRTSIGITAGTGTAWLSDTDRDVVFNPVWNAGATLVYSSETHWGFGADIKYSREGVKFTYAGTGNYNGQTMTTRVGSDFIRIPLRAIYFFNKNENAFRPNVSLGPSFGILTGGEIKTYDGDKNVIGTSKVSDSFRDVDFGLQGTAGASIMLSDGLWFSADIVYYQGLNKQNKNGTNTMLNSNVGINLGLRIGVGR,not soluble
14,MSLKSYRPIELAKMFNLHSNTIRFYESIGYISKASRKPNGYREFTDKHILQLTICRHILGYRYTNRHIRDTGKLIIICSAESKLIEGKQYAQDYIKIIQNEIEIAEKTAQLLHKWAELKRDTDNSDSIEKFYTRNEVACLLGVTSEAVRNWERNDLIKSDKRGYRNAVLFNNIDLDRIRIIYMLRQTGYSMSAIHRCLMVYDKGQTELVVAALNKTDERELLSVGDCWLSELKKLESAAEEIPLIFDKLKESEGHHHHHH,soluble
15,MSIKFELIDVPIPQGTNVIIGQAHFIKTVEDLYEALVTSVPGVKFGIAFCEASGKRLVRHEANDEELRNLAIDLCKKIAAGHVFVIYIRNAWPINVLNAIKNVPEVVRIFAATANPLKVIVAEVEPERRGVVGVVDGHSPLGVETEKDREERKKFLREVVKYKL,soluble
16,QITYWKERQRRKTIRAEEIRGLIYRIWKIYPSLLGQELLESTIFVFMVLAAVARLGAEDVAVYKLLDLVCGMLELPVYAYAAATQTYALQNHAAGKKAAVRSYEK,not soluble
17,PERESVRHKQPKSKEKKNAEKHIPHGIKCFVHAPEKYEWRWMGDEYVHALTPNVLEMVECLKANGIRLHTAGITVGMQKGKDLVPAPALALSTEMDDHSFFDMEFSRDEALSYLARQSVTTMPDLPLGFVLATFRRRPLGFLKNLGTRANNLYPQDWRIRNLETSEDCMEAKD,not soluble
18,MGSDKIHHHHHHMNNIIATILKYAGLEGKAVIPLKGATSSYVFRAGDSVFRIHTNPAWLEQEPDLVAHEVFALRATGRLGPDVENYQLTWEGEIPPWIQMTCLPGEVRLEPLNRAYLKQLAKTLVAIHQLPVPEARYQYAPYVTKRTVPFWAVQKEMWQRAVAEPPATSQQVRFIHRDFHPVNVLYESAEKYNVVDWINGCVGPIEADVAHCRLNLMLLESVEAADQFLAEYIAYSGFSYDRKWDLTAVFDFEPDTLNVYPGWKAYGKANISQGNVRERMENIVLKVYENDESGY,not soluble
19,MRYLSNLLCLTLTFIVCFGAERDADEEAYVLMNLLKQSIDMDQTEALPGFVSRDFTYDTCKGIWNRDKYMEYLKVFSSRPDGGMQPMSTDWKVTNAHFNDNTLYFNIHNYNQHLAIYPDLEFEAKKIGKDERYILTRGKISKCGTLEKEY,not soluble
20,MVCLQRICYEKIFLKKKIIATGTIWMSNMQQINNASVRPVSAYNTKHLQIPAIALLQSSPLPEQAIRTFSRALLTPTNHLFVNGRYIRTGLISGFDSRKLSFFQRIYLFLKSRFFTENKSVKISAVWAHDSWSNNYFHWFNDTLPRLFLLSKQIEDSVAVLPVELSKITFIVESLELLKIEHQWIDQKKSHRFESLSVLHTATLQPDINPLLQKQMRDAVFSAMKIDPQERPFRKIYISRAHARYRKIINEQELLPVLKKYGYDIIYPETYSFKEQVKLFAESNALISIHGAGHTNCMFMKQDAKVMEIRNTEWESQPLCFWGLANIFELKWEYITATRVSEVSNFNDVFIAPHIFEESLRTFENIKLEHHHHHH,not soluble

# From the DeepSol protein solubility set
